Assay results from publication PMC6420079.

Molecular target: Fur (Salmonella enterica serovar Typhimurium …, UniProt A0A0H3NJ13 1-150)
Assay: fluorescence anisotropy

B1: furbox (dsDNA)
DNA 1: GGGGATAATGATAATCATTATCGGG
DNA 2: CCCGATAATGATTATCATTATCCCC
In the case of B1, the Kd is reported as 56 nM.
